Measured values taken from US9340596.

Experiments:
Experiment in all cases: cell-based or functional assay
death receptor = biological target: death receptor
αVβ3 integrin (human) = αVβ3 integrin (human) (UniProt P06756)
αVβ5 integrin (human) = αVβ5 integrin (human) (UniProt P06756)
αVβ5 integrin (human), sequence (P06756 31-1048, chain 1 of 2): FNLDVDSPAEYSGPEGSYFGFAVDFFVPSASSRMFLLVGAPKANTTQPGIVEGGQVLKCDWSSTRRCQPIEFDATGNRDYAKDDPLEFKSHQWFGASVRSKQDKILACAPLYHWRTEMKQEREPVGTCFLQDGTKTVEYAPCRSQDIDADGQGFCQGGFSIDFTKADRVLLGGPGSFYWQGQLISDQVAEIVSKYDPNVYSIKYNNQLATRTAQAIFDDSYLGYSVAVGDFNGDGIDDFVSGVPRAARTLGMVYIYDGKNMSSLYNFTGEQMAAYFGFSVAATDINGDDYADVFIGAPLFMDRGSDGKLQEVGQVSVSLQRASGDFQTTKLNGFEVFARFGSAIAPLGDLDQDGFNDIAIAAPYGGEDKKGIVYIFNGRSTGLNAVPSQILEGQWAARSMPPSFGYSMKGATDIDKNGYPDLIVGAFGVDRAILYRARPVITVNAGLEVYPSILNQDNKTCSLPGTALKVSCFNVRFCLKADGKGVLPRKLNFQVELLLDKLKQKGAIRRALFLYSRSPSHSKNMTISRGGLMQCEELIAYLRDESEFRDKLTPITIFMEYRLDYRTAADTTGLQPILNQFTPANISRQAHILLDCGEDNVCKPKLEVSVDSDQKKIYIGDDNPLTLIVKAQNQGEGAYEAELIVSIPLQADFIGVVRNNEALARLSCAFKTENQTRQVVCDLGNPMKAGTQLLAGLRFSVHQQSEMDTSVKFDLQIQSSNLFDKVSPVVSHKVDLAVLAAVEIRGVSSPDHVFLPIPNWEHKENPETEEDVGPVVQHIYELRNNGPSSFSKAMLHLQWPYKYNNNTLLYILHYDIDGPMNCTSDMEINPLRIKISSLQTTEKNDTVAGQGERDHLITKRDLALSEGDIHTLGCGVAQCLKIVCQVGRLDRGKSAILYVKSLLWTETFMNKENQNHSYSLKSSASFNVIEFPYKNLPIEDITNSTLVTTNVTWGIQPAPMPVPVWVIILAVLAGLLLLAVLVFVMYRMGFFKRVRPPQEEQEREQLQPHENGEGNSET
αVβ5 integrin (human), sequence (P18084 24-799, chain 2 of 2, further chain): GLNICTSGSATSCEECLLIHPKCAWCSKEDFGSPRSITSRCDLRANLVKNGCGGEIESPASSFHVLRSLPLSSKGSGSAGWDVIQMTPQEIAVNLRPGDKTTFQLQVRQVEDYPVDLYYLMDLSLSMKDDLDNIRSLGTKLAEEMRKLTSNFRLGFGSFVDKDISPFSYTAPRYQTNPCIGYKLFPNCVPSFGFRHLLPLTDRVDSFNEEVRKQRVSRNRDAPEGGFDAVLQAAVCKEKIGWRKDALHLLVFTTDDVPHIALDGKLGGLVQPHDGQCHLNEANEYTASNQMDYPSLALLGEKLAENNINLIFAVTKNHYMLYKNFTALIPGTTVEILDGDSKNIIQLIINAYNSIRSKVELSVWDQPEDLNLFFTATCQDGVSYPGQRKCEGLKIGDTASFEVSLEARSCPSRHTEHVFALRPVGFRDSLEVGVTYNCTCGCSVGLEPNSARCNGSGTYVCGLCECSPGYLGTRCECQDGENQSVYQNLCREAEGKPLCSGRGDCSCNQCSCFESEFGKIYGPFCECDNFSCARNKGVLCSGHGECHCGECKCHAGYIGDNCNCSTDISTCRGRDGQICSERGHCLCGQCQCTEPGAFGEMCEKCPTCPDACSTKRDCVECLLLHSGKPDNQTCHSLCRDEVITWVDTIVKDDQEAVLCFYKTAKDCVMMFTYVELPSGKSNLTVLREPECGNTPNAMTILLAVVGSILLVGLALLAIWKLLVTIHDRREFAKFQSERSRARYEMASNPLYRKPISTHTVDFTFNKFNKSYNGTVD

αVβ3 integrin (human), sequence (P06756 31-1048, chain 1 of 2): as the sequence (P06756 31-1048, chain 1 of 2) above
αVβ3 integrin (human), sequence (P05106 27-788, chain 2 of 2, further chain): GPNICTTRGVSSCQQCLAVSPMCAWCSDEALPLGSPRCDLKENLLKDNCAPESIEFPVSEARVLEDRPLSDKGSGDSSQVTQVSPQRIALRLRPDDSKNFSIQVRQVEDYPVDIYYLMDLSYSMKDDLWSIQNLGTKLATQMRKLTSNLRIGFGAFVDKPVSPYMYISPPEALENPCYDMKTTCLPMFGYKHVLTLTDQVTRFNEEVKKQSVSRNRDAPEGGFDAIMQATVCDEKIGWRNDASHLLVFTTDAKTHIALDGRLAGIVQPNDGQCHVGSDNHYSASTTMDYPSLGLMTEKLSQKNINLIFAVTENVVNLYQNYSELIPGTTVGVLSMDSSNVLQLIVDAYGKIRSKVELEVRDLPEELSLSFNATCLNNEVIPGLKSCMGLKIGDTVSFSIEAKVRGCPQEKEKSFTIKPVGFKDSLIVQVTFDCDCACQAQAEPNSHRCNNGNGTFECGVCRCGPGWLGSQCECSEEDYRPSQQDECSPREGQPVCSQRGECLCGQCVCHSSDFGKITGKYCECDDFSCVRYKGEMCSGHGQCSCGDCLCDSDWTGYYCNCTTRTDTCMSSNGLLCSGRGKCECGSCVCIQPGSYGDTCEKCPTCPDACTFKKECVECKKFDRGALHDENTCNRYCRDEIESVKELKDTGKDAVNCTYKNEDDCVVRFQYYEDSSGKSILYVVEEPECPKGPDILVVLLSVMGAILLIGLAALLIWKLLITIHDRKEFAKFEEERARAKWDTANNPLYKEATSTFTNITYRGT

## RGD-L-TRAIL (human TRAIL variant: short peptide …, connecting peptide of five glycines, TRAIL) (from UniProt P50591 114-281)
Death receptor
  apoptosis rate of COLO-205 cells at 2.43 ng/ml (Annexin V-FITC and PI double staining): 87.5%
  caspase-8 and caspase-3 activity in Jurkat cells after two hours, against the same dose of wild-type TRAIL: 2.5 times
  medial lethal dose on COLO-205 cells: 0.37 ng/mL
  medial lethal dose on Jurkat cells: 0.41 ng/mL
  medial lethal dose on MDA-MB-231 cells: 1.2 ng/mL
αVβ3 integrin (human)
  fold reduction of the medial lethal dose against wild-type TRAIL, COLO-205 cells: 9.5 times
  fold reduction of the medial lethal dose against wild-type TRAIL, Jurkat cells: 16.3 times
  fold reduction of the medial lethal dose against wild-type TRAIL, MDA-MB-231 cells: 1.9 times
αVβ5 integrin (human)
  fold reduction of the medial lethal dose against wild-type TRAIL, COLO-205 cells: 9.5 times
  fold reduction of the medial lethal dose against wild-type TRAIL, Jurkat cells: 16.3 times
  fold reduction of the medial lethal dose against wild-type TRAIL, MDA-MB-231 cells: 1.9 times
